Laboratory results: paper PMC7293033

How the values were obtained:
[1] = target: GST-UAP56 (human) (UniProt Q13838); test: SPR; UAP56 with API5, FGF2, the API5–FGF2 complex or PBK as analyte proteins; purified recombinant proteins
[2] = target: His-FGF2, LMW FGF2 (residues 135-288, C211S/C229S) (UniProt P09038); test: SPR; settings: concentration series 0.031, 0.063, 0.13, 0.25, 0.50, 1.0, 2.0, 4.0, 8.0, 16 µM
[3] = target: His-API5 (apoptosis inhibitor 5, residues 1-504, isoform 2), wild type; test: SPR; settings: concentration series 0.13, 0.25, 0.50, 1.0, 2.0, 4.0, 8.0, 16 µM
[4] = target: His-API5 (apoptosis inhibitor 5, residues 1-504, isoform 2), wild type (human); test: SPR; purified recombinant His-API5 and His-FGF2; who was immobilised is not given in the source
[5] = target: His-API5 3Mut (E184A/D185A/E190A) (human); test: as above

Chain of GST-UAP56 (human) (Q13838 whole entry, the tested form may be a part): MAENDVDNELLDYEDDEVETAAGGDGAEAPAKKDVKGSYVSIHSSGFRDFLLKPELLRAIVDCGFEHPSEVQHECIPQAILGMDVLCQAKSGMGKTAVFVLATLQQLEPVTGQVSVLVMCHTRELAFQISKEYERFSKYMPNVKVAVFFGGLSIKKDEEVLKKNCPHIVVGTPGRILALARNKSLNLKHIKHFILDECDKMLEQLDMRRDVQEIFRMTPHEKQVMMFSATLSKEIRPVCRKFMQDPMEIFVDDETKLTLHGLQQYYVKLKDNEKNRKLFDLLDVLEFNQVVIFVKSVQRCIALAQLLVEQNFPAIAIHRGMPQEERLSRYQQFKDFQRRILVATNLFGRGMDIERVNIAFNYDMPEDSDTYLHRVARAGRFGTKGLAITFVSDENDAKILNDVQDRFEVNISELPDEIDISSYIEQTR
Chain of His-FGF2, LMW FGF2 (residues 135-288, C211S/C229S) (P09038 135-288 C211S/C229S): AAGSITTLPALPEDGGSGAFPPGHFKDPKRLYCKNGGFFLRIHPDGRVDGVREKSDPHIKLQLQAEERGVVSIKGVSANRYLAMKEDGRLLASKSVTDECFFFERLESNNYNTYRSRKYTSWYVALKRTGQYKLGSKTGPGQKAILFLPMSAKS

Row | Substance | Kd [1] | Kd [4] | Kd [5] | other results
1 | His-API5 (apoptosis inhibitor 5, residues 1-504, isoform 2), wild type (natural protein) | 1370 nM | – | – | –
2 | His-API5 (apoptosis inhibitor 5, residues 1-504, isoform 2), wild type E184A; D185A; E190A | – | – | – | kon [2]: 2260 M⁻¹ s⁻¹
3 | API5–FGF2 complex (His-API5 with His-LMW FGF2) (from UniProt P09038 135-288) | 199 nM | – | – | –
4 | His-FGF2, LMW FGF2 (residues 135-288, C211S/C229S) (from UniProt P09038) R262A; T263A; K271A | – | – | – | kon [3]: 1660 M⁻¹ s⁻¹
5 | His-FGF2, LMW FGF2 (residues 135-288, C211S/C229S) (from UniProt P09038 135-288) (natural protein) | – | 676 nM | 4200 nM | –
6 | His-FGF2 Mut (C211S/C229S/R262A/T263A/K271A) (from UniProt P09038 135-288) (natural protein) | – | 1510 nM | 17300 nM | –
